This note sets out measurements from patent publication US20170128596A1, “Peptide-Based Compounds and Their Uses for Tumor Imaging and Targeting” (Klinikum rechts der lsar der Technischen Universitaet …, priority 2014, published 2017).

Data set [1] in a line: Toxicity testing in healthy and tumor-bearing BALB/c mice.
Description: Concentrations up to 500 μg of TPP per mouse were tested in tumor-bearing mice (s.c. tumors, size 0.4 cm^3). The health status and the general behavior of mice were inspected. Animals were sacrificed on day 5 and the heart, liver, spleen, lung and kidneys examined for pathological changes using standard histological techniques.
The nature of data set [2]: Ex vivo biodistribution in CT26 tumor-bearing mice by NIRF quantification. Details: species or system mouse. The settings on record: i.v. As to the method:
Regression equation of linear regression analysis (lower panel). The concentration of TPP[Cy5.5] in organs was calculated using this regression equation. Scale bar, 5 mm.
For biodistribution tumor-bearing mice were sacrificed 12, 24 or 48 h after i.v. injection of TPP[Cy5.5]. Fluorescent signal intensities of 0.25 cm^3 tissue cubes, taken from the tumor, spleen, pancreas, liver, lung, duodenum, kidney, heart, and 0.25 ml of peripheral blood were measured as described above. Agarose-gel cubes with standardized concentrations were used to calculate the probe concentrations in the investigated tissue samples.
After the mice had been sacrificed, the contents of TPP[Cy5.5] in the tumors and organs (spleen, pancreas, liver, lung, duodenum, kidney, heart and blood) were assessed. […] Fluorescence intensities of the tissues were measured as described in the imaging procedures chapter. Quantification of the Cy5.5 contents in the defined tissue volumes was calculated using fluorescence signal intensities of standards with defined concentrations. […] Fluorescence signal intensity was measured using the same instrument settings than for the tissue specimen (FIG. 10, upper panel). […] Linear regression equation of the standards was calculated with Microsoft Excel 2007 (FIG. 10, lower panel). The concentration of TPP[Cy5.5] in organs was calculated using the regression equation.

Data set [3] has as its system MCF7, MDA-MB-231, T47D cells. Description: Peptide uptake into human breast cancer cell lines by confocal microscopy. The data set is classed as cell-based. The settings on record: 30 min at 37° C. How it is done: Human breast cancer cell lines (MCF7, MDA-MB-231, T47D) expressing different levels of membrane Hsp70 were incubated with CF-TPP or a scrambled peptide for 30 min at 37° C. and internalization of the peptides was imaged by confocal microscopy.

Data set [4] concerns the target membrane-bound Heat shock protein 70 (Hsp70) on human tumor cells (human) (UniProt P0DMV8). The experiment in a line: flow cytometry, single cell suspension of in vivo-grown MCF-7 human mammary tumor. A general note: Flow cytometry measures light scatter and fluorescence of single cells or particles in a stream.
Data set [5] has the same target. Description: flow cytometry, single cell suspension of in vivo-grown MIA PaCa-2 human pancreas tumor.
The target is the same in data set [6]. Description: flow cytometry, single cell suspension of in vivo-grown HeLa human cervix tumor.
Data set [7] has the same target. The experiment in a line: flow cytometry, single cell suspension of in vivo-grown Cal-33 human head & neck tumor.
Data set [8] deals with membrane-bound Heat shock protein 70 (Hsp70) on murine tumor cells (mouse) (UniProt Q61696). The experiment in a line: flow cytometry, single cell suspension of in vivo-grown 4T1 murine mammary tumor.
Chain of membrane-bound Heat shock protein 70 (Hsp70) on murine tumor cells (mouse) (Q61696 2-641): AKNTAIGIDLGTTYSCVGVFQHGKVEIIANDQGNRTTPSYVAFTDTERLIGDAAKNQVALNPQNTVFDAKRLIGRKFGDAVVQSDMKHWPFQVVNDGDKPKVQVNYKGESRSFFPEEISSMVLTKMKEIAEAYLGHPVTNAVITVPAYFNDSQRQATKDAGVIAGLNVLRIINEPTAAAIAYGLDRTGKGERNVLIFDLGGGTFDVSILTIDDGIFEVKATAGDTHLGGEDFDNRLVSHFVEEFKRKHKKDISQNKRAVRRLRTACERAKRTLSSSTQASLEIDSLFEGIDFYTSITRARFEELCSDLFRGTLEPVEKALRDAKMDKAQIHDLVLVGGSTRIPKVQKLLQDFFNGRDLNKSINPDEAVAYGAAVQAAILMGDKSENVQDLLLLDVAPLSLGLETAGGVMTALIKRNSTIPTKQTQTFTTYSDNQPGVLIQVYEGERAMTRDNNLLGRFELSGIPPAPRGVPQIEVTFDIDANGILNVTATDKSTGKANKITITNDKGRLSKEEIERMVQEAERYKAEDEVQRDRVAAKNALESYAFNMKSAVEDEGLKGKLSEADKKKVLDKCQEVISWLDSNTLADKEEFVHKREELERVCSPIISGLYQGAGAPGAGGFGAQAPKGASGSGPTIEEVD
Data set [9] deals with membrane-bound Heat shock protein 70 (Hsp70) on human tumor cells (human) (UniProt P0DMV8). Description: flow cytometry, single cell suspension of in vivo-grown HCT-116 human colon tumor.
Chain of membrane-bound Heat shock protein 70 (Hsp70) on human tumor cells (human) (P0DMV8 2-641): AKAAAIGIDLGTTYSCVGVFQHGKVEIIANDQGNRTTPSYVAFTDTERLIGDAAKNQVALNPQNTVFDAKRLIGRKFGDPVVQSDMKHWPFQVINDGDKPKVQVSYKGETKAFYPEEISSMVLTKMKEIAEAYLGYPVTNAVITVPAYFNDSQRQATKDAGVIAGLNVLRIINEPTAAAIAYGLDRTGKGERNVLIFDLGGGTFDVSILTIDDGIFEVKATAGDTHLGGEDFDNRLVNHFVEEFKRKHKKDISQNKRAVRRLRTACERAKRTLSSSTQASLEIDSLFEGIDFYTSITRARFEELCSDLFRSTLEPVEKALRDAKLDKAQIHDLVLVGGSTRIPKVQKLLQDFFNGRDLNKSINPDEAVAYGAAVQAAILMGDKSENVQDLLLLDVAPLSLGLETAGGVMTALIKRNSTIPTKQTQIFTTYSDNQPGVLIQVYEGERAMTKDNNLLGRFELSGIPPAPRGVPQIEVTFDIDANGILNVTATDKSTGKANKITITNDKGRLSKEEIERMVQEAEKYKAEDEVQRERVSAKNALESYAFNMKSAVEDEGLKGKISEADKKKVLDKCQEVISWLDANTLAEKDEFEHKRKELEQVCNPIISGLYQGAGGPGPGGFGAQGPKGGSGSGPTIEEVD
Data set [10] has as its target membrane-bound Heat shock protein 70 (Hsp70) on murine tumor cells (mouse) (UniProt Q61696). The experiment in a line: flow cytometry, single cell suspension of PDAC murine pancreas tumor.
Data set [11] concerns the target membrane-bound Heat shock protein 70 (Hsp70) on human tumor cells (human) (UniProt P0DMV8). Description: flow cytometry, single cell suspension of in vivo-grown T-47D human mammary tumor.
For data set [12] the target is unchanged. The experiment in a line: flow cytometry, single cell suspension of in vivo-grown A549 human lung tumor.
Data set [13] concerns the target membrane-bound Heat shock protein 70 (Hsp70) on murine tumor cells (mouse) (UniProt Q61696). The experiment in a line: flow cytometry, single cell suspension of in vivo-grown CT26 murine colon tumor.
Data set [14] has the same target. The experiment in a line: flow cytometry, single cell suspension of CAC murine colon tumor.
For data set [15], the target named is membrane-bound Heat shock protein 70 (Hsp70) on human tumor cells (human) (UniProt P0DMV8). The experiment in a line: flow cytometry, single cell suspension of in vivo-grown COLO357 human pancreas tumor.
The target is the same in data set [16]. The experiment in a line: flow cytometry, single cell suspension of in vivo-grown H-1339 human lung tumor.
The target is the same in data set [17]. Description: flow cytometry, single cell suspension of in vivo-grown CX-2 human colon tumor.
Data set [18] shares this target. The experiment in a line: flow cytometry, single cell suspension of in vivo-grown Panc-1 human pancreas tumor.
Data set [19] shares this target. Description: flow cytometry, single cell suspension of in vivo-grown MDA-MB231 human mammary tumor.
Data set [20] has the same target. The experiment in a line: flow cytometry, single cell suspension of in vivo-grown FaDu human head & neck tumor.

For the compound `CC(C)C[C@H](NC(=O)[C@H](CC(C)C)NC(=O)[C@H](CC(N)=O)NC(=O)[C@H](CC(N)=O)NC(=O)[C@H](CC(=O)O)NC(=O)[C@H](CCCCN)NC(=O)[C@@H](N)[C@@H](C)O)C(=O)NCC(=O)N[C@@H](CCCNC(=N)N)C(=O)N[C@@H](Cc1ccccc1)C(=O)N[C@@H](CCC(=O)O)C(=O)N[C@@H](CC(C)C)C(=O)N[C@@H](CO)C(=O)NCC(=O)O` [TPP, TKDNNLLGRFELSG], in data set [1] (BALB/c mice, i.v. 500 to 1050 μg), the “loss of weight or change in mobility” value is listed as “Nor did any animal exhibit any loss of weight or change in mobility”. The “gross monitoring for toxic reactions (skin ulcerations, toxic death)” value in data set [1] (BALB/c mice, i.v. 500 to 1050 μg (25 to 50 μg/g)) is “did not show any toxic reactions”. Also, the “histological examination of heart, liver, spleen, lung and kidney” value in [1] (day 5 after injection) is recorded as “no pathological changes”. For the same compound, the “side effects in tumor-bearing mice” value in data set [1] (up to 500 μg per mouse) is listed as “did not exert any side effects”. Besides, in data set [2], the route of clearance entry is “cleared from the body by renal excretion”.
With “NGLTLKNDFSRLEG (scrambled control peptide)”, the “internalization into tumor cells” value in data set [3] is recorded as “not internalized”.
With “cmHsp70.1 monoclonal antibody (FITC-conjugated for flow cytometry)”, the % membrane-positive cells in [4] was determined as 58%; in data set [5], 58.5%; in [6], 55%; in data set [7] it was 68.1%; in [8], 56.3%; in data set [9] it was 63.3%. The % membrane-positive cells was 50% in [10]; 48% in data set [11]; 76.3% in data set [12]; 55.5% in data set [13]; 51.2% in [14]; 57.8% in [15]. Further, the % membrane-positive cells in [16] amounted to 60%; in data set [17], 56.6%; in [18], 46%; in data set [19], 63.3%; in data set [20] it was 59%.
